# Laboratory results reported in patent publication US20130046081A1 (SHANGHAI BIOMABS PHARMACEUTICALS, published 2013).
# B1: fully human anti-VEGF antibody 11A7 (antibody, human IgG1, kappa, V domains shown)
# VH: QVQLVQSGAEVKKPGASVKVSCKASGYTFTSYDINWVRQATGQGLEWMGWMNPNSGNTGYAQKFQGRVTMTRNTSISTAYMELSSLRSEDTAVYYCARGGYSSSWYYWYFDLWGRGTLVTVSS
# VL: DIQMTQSPSSLSASVGDRVTITCRASQGIRNDLGWYQQKPGKAPKRLIYAASSLQSGVPSRFSGSGSGTEFTLTISSLQPEDFATYYCLQHNSYPPVYTFGQGTKLEIKR
# notes: The genes carried a signal peptide at the 5' end; also called fully human antibody 11A7
# Molecular target: T1, Recombinant Human VEGF165 Protein (human, UniProt P15692-4 27-191)
# T1 construct: Bought protein (R&D)
# Assay: SPR (Biacore T100), VEGF165 amine-coupled to the chip, antibody in solution
# Experimental: Affinity constant of VEGF antibody was detected using Biacore T100 system (Biacore AB, Uppsala, Sweden). VEGF165 (R&D) was covalently linked to CMS biological sensor chips (Biacore) by amino-coupling. […] After each examination, they were washed with 5 μl of 50 mM hydrochloric acid aqueous solution at a flow rate of 3 μl/min so as to wash away the residual antibodies from the immobilized ligands. The binding curves were subjected to nonlinear regression analysis using BIAevalution software (T100 evalution version 2.0, Biacore).
# T1 sequence (P15692 other isoform, or with tags, fused parts or gaps limits assumed): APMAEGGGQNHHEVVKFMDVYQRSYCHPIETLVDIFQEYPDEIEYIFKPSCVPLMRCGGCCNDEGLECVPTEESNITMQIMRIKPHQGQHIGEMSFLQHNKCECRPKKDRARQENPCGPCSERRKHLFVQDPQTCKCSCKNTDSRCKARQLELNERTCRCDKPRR
binder,measurement,value
B1,Kd,0.86 nM
same,koff,7.1e-05 s⁻¹
same,kon,82400 M⁻¹ s⁻¹
